According to article PMC4188797:

Target: metabotropic glutamate receptor 1 splice variant mGluR1a (endogenous, rat brain) (rat (endogenous in rat brain)), P23385
Test: SDS-PAGE and immunoblot of dimer bands in subcellular fractions
Conditions: remark: other sources report otherwise

stoichiometry N: 2
B1: metabotropic glutamate receptor 1 splice variant mGluR1a (endogenous, rat brain), P23385 19-1199 (receptor)
chain: LPRMPDRKVLLAGASSQRSVARMDGDVIIGALFSVHHQPPAEKVPERKCGEIREQYGIQRVEAMFHTLDKINADPVLLPNITLGSEIRDSCWHSSVALEQSIEFIRDSLISIRDEKDGLNRCLPDGQTLPPGRTKKPIAGVIGPGSSSVAIQVQNLLQLFDIPQIAYSATSIDLSDKTLYKYFLRVVPSDTLQARAMLDIVKRYNWTYVSAVHTEGNYGESGMDAFKELAAQEGLCIAHSDKIYSNAGEKSFDRLLRKLRERLPKARVVVCFCEGMTVRGLLSAMRRLGVVGEFSLIGSDGWADRDEVIEGYEVEANGGITIKLQSPEVRSFDDYFLKLRLDTNTRNPWFPEFWQHRFQCRLPGHLLENPNFKKVCTGNESLEENYVQDSKMGFVINAIYAMAHGLQNMHHALCPGHVGLCDAMKPIDGRKLLDFLIKSSFVGVSGEEVWFDEKGDAPGRYDIMNLQYTEANRYDYVHVGTWHEGVLNIDDYKIQMNKSGMVRSVCSEPCLKGQIKVIRKGEVSCCWICTACKENEFVQDEFTCRACDLGWWPNAELTGCEPIPVRYLEWSDIESIIAIAFSCLGILVTLFVTLIFVLYRDTPVVKSSSRELCYIILAGIFLGYVCPFTLIAKPTTTSCYLQRLLVGLSSAMCYSALVTKTNRIARILAGSKKKICTRKPRFMSAWAQVIIASILISVQLTLVVTLIIMEPPMPILSYPSIKEVYLICNTSNLGVVAPVGYNGLLIMSCTYYAFKTRNVPANFNEAKYIAFTMYTTCIIWLAFVPIYFGSNYKIITTCFAVSLSVTVALGCMFTPKMYIIIAKPERNVRSAFTTSDVVRMHVGDGKLPCRSNTFLNIFRRKKPGAGNANSNGKSVSWSEPGGRQAPKGQHVWQRLSVHVKTNETACNQTAVIKPLTKSYQGSGKSLTFSDASTKTLYNVEEEDNTPSAHFSPPSSPSMVVHRRGPPVATTPPLPPHLTAEETPLFLADSVIPKGLPPPLPQQQPQQPPPQQPPQQPKSLMDQLQGVVTNFGSGIPDFHAVLAGPGTPGNSLRSLYPPPPPPQHLQMLPLHLSTFQEESISPPGEDIDDDSERFKLLQEFVYEREGNTEEDELEEEEDLPTASKLTPEDSPALTPPSPFRDSVASGSSVPSSPVSESVLCTPPNVTYASVILRDYKQSSSTL
